Measurements as given in publication PMC13486833, “Engineered HMGB1 construct with tandem Box B domains promotes tissue regeneration without potential for inflammation” (iScience, 2026).

Target: T1, RAGE-Fc chimera protein (UniProt Q15109 23-342)
T1 construct: RAGE, recombinant Fc chimera BioTechne Cat# 1145-RG; As far as I recall the catalogue product is the human RAGE extracellular domain fused to human IgG1 Fc; source: bought: BioTechne
Assay: BLI; RAGE-Fc (15 μg/mL) immobilised on anti-IgG (AHC) biosensors; HMGB1 constructs 0–25 μM in solution; 200 s association/dissociation
Conditions: both partners purified

T1 sequence (Q15109 23-342, change not shown): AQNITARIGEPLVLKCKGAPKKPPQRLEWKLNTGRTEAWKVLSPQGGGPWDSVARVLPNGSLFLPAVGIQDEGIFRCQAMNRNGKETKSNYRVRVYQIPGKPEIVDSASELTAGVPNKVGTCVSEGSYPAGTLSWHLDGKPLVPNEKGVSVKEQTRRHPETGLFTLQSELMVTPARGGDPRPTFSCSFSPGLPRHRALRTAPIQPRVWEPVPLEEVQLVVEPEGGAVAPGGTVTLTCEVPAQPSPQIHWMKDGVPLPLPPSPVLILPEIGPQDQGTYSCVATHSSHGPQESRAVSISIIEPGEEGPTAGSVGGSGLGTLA

B1: dBB12L (FR-HMGB1 89–174::89–174) (other)
chain: KDPNAPKRPPSAFFLFCSEYRPKIKGEHPGLSIGDVAKKLGEMWNNTAADDKQPYEKKAAKLKEKYEKDIAAYRAKGKPDAAKKGVKDPNAPKRPPSAFFLFCSEYRPKIKGEHPGLSIGDVAKKLGEMWNNTAADDKQPYEKKAAKLKEKYEKDIAAYRAKGKPDAAKKGV
modifications: fully reduced Cys105 (printed numbering) in both copies; printed n = entry n+1 (C22/C44/C105 = C23/C45/C106 in P09429); direct tandem fusion, with native flanks acting as the linker
  Kd: 5.5 µM
  koff: 0.206 s⁻¹
